Experimental data from paper PMC6573788.

What was measured:
[1] = molecular target: ΔRACK1 40S ribosomal subunit (human 40S subunit without RACK1) (human (endogenous in HAP1)) (UniProt P23396); assay: native gel or EMSA
[2] = molecular target: ΔRACK1 40S ribosomal subunit (human 40S subunit without RACK1) (human (endogenous in HAP1)) (UniProt P23396); assay: FRET or BRET

Molecule	t1/2 of RACK1 on the ribosome [1] [h]	kobs of the fast phase at 75 nM [2] [s⁻¹]	kon of the fast phase [2] [M⁻¹ s⁻¹]
native RACK1-ybbR expressed in ΔRACK1 HAP1 cells (from UniProt P63244 1-317) (natural protein)	15	–	–
recombinant Asc1p-ybbR (S. cerevisiae RACK1 ortholog) (natural protein) MASNEVLVLRGTLEGHNGWVTSLATSAGQPNLLLSASRDKTLISWKLTGDDQKFGVPVRSFKGHSHIVQDCTLTADGAYALSASWDKTLRLWDVATGETYQRFVGHKSDVMSVDIDKKASMIISGSRDKTIKVWTIKGQCLATLLGHNDWVSQVRVVPNEKADDDSVTIISAGNDKMVKAWNLNQFQIEADFIGHNSNINTLTASPDGTLIASAGKDGEIMLWNLAAKKAMYTLSAQDEVFSLAFSPNRYWLAAATATGIKVFSLDPQYLVDDLRPEFAGYSKAAEPHAVSLAWSADGQTLFAGYTDNVIRVWQVMTAN	–	0.2	2e+06
